In patent US12692305:

Assays:
[1] = target: PD-1 on in vitro activated primary human T cells (human) (UniProt Q15116); test: flow cytometry, detection antibody on Ki-67+ CD8+ activated T cells; average pooled over non-PD-1-binding test samples and concentrations
[2] = target: PD-1 on in vitro activated primary human T cells (human) (UniProt Q15116); test: flow cytometry, detection antibody on Ki-67+ CD8+ activated T cells after 4 d with 100 nM RV2 precomplexed with IL-15
[3] = target: PD-1 on in vitro activated primary human T cells (human) (UniProt Q15116); test: flow cytometry, detection antibody on Ki-67+ CD4+ activated T cells after 4 d with 100 nM IL-15 alone
[4] = target: PD-1 on in vitro activated primary human T cells (human) (UniProt Q15116); test: flow cytometry, residual staining by detection antibody on Ki-67+ CD8+ activated T cells in the presence of competitors RV29 and RV32 (IL-15 precomplexed); average pooled over both constructs and 100, 10 and 1 nM
[5] = target: PD-1 on in vitro activated primary human T cells (human) (UniProt Q15116); test: flow cytometry, detection antibody on Ki-67+ CD4+ activated T cells after 4 d with 1 nM IL-15Rα-Fc precomplexed with IL-15
[6] = target: PD-1 on in vitro activated primary human T cells (human) (UniProt Q15116); test: flow cytometry, detection antibody on Ki-67+ CD8+ activated T cells, media only
[7] = target: PD-1 on in vitro activated primary human T cells (human) (UniProt Q15116); test: flow cytometry, detection antibody on Ki-67+ CD4+ activated T cells after 4 d with 100 nM IL-15Rα-Fc precomplexed with IL-15
[8] = target: PD-1 on in vitro activated primary human T cells (human) (UniProt Q15116); test: flow cytometry, detection antibody on Ki-67+ CD8+ activated T cells after 4 d with 10 nM RV2 precomplexed with IL-15
[9] = target: PD-1 on in vitro activated primary human T cells (human) (UniProt Q15116); test: flow cytometry, detection antibody on Ki-67+ CD8+ activated T cells after 4 d with 10 nM IL-15Rα-Fc precomplexed with IL-15
[10] = target: PD-1 on in vitro activated primary human T cells (human) (UniProt Q15116); test: flow cytometry, detection antibody on Ki-67+ CD8+ activated T cells after 4 d with 1 nM IL-15Rα-Fc precomplexed with IL-15
[11] = target: PD-1 on in vitro activated primary human T cells (human) (UniProt Q15116); test: flow cytometry, detection antibody on Ki-67+ CD4+ activated T cells after 4 d with 1 nM RV2 precomplexed with IL-15
[12] = target: PD-1 on in vitro activated primary human T cells (human) (UniProt Q15116); test: flow cytometry, detection antibody on Ki-67+ CD4+ activated T cells; average pooled over non-PD-1-binding test samples and concentrations
[13] = target: PD-1 on in vitro activated primary human T cells (human) (UniProt Q15116); test: flow cytometry, residual staining by detection antibody on Ki-67+ CD4+ activated T cells in the presence of competitors RV29 and RV32 (IL-15 precomplexed); average pooled over both constructs and 100, 10 and 1 nM
[14] = target: PD-1 on in vitro activated primary human T cells (human) (UniProt Q15116); test: flow cytometry, detection antibody on Ki-67+ CD8+ activated T cells after 4 d with 1 nM RV1 precomplexed with IL-15
[15] = target: PD-1 on in vitro activated primary human T cells (human) (UniProt Q15116); test: flow cytometry, detection antibody on Ki-67+ CD4+ activated T cells after 4 d with 10 nM IL-15 alone
[16] = target: PD-1 on in vitro activated primary human T cells (human) (UniProt Q15116); test: flow cytometry, detection antibody on Ki-67+ CD8+ activated T cells after 4 d with 10 nM IL-15 alone
[17] = target: PD-1 on in vitro activated primary human T cells (human) (UniProt Q15116); test: flow cytometry, detection antibody on Ki-67+ CD8+ activated T cells after 4 d with 1 nM IL-15 alone
[18] = target: PD-1 on in vitro activated primary human T cells (human) (UniProt Q15116); test: flow cytometry, detection antibody on Ki-67+ CD4+ activated T cells after 4 d with 10 nM RV2 precomplexed with IL-15
[19] = target: PD-1 on in vitro activated primary human T cells (human) (UniProt Q15116); test: flow cytometry, detection antibody on Ki-67+ CD8+ activated T cells after 4 d with 10 nM RV1 precomplexed with IL-15
[20] = target: PD-1 on in vitro activated primary human T cells (human) (UniProt Q15116); test: flow cytometry, detection antibody on Ki-67+ CD8+ activated T cells after 4 d with 1 nM RV2 precomplexed with IL-15
[21] = target: PD-1 on in vitro activated primary human T cells (human) (UniProt Q15116); test: flow cytometry, detection antibody on Ki-67+ CD4+ activated T cells after 4 d with 1 nM RV1 precomplexed with IL-15
[22] = target: PD-1 on in vitro activated primary human T cells (human) (UniProt Q15116); test: flow cytometry, detection antibody on Ki-67+ CD4+ activated T cells, media only
[23] = target: PD-1 on in vitro activated primary human T cells (human) (UniProt Q15116); test: flow cytometry, detection antibody on Ki-67+ CD4+ activated T cells after 4 d with 10 nM IL-15Rα-Fc precomplexed with IL-15
[24] = target: PD-1 on in vitro activated primary human T cells (human) (UniProt Q15116); test: flow cytometry, detection antibody on Ki-67+ CD8+ activated T cells after 4 d with 100 nM RV1 precomplexed with IL-15
[25] = target: PD-1 on in vitro activated primary human T cells (human) (UniProt Q15116); test: flow cytometry, detection antibody on Ki-67+ CD4+ activated T cells after 4 d with 100 nM RV1 precomplexed with IL-15
[26] = target: PD-1 on in vitro activated primary human T cells (human) (UniProt Q15116); test: flow cytometry, detection antibody on Ki-67+ CD4+ activated T cells after 4 d with 1 nM IL-15 alone
[27] = target: PD-1 on in vitro activated primary human T cells (human) (UniProt Q15116); test: flow cytometry, detection antibody on Ki-67+ CD8+ activated T cells after 4 d with 100 nM IL-15 alone
[28] = target: PD-1 on in vitro activated primary human T cells (human) (UniProt Q15116); test: flow cytometry, detection antibody on Ki-67+ CD4+ activated T cells after 4 d with 10 nM RV1 precomplexed with IL-15
[29] = target: PD-1 on in vitro activated primary human T cells (human) (UniProt Q15116); test: flow cytometry, detection antibody on Ki-67+ CD4+ activated T cells after 4 d with 100 nM RV2 precomplexed with IL-15
[30] = target: PD-1 on in vitro activated primary human T cells (human) (UniProt Q15116); test: flow cytometry, detection antibody on Ki-67+ CD8+ activated T cells after 4 d with 100 nM IL-15Rα-Fc precomplexed with IL-15

Chain of PD-1 on in vitro activated primary human T cells (human) (Q15116 25-288): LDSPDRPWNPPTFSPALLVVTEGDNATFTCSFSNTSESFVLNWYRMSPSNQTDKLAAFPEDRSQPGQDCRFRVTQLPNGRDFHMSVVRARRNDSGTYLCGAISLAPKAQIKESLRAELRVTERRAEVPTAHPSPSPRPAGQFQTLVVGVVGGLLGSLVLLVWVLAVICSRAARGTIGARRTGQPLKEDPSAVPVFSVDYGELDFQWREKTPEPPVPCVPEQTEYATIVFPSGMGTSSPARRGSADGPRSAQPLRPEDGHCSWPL

PD-1 detection antibody (clone EH12.21H7)
MFI of PD-1 staining (average) [1]: 2190 MFI | MFI of PD-1 staining [2]: 2820 MFI | MFI of PD-1 staining [3]: 6550 MFI | MFI of PD-1 staining (average) [4]: 1460 MFI | MFI of PD-1 staining [5]: 4280 MFI | MFI of PD-1 staining [6]: 2250 MFI | MFI of PD-1 staining [7]: 4380 MFI | MFI of PD-1 staining [8]: 2020 MFI | MFI of PD-1 staining [9]: 2120 MFI | MFI of PD-1 staining [10]: 1690 MFI | MFI of PD-1 staining [11]: 4200 MFI | MFI of PD-1 staining (average) [12]: 4830 MFI | MFI of PD-1 staining (average) [13]: 3090 MFI | MFI of PD-1 staining [14]: 1870 MFI | MFI of PD-1 staining [15]: 6440 MFI | MFI of PD-1 staining [16]: 3190 MFI | MFI of PD-1 staining [17]: 2050 MFI | MFI of PD-1 staining [18]: 5070 MFI | MFI of PD-1 staining [19]: 1890 MFI | MFI of PD-1 staining [20]: 1920 MFI | MFI of PD-1 staining [21]: 4100 MFI | MFI of PD-1 staining [22]: 4020 MFI | MFI of PD-1 staining [23]: 4480 MFI | MFI of PD-1 staining [24]: 2370 MFI | MFI of PD-1 staining [25]: 4830 MFI | MFI of PD-1 staining [26]: 4870 MFI | MFI of PD-1 staining [27]: 3220 MFI | MFI of PD-1 staining [28]: 4620 MFI | MFI of PD-1 staining [29]: 5840 MFI | MFI of PD-1 staining [30]: 2110 MFI
